Molecular target: T1, soluble human CD3ε chain (human, UniProt P07766 23-126, limits assumed)
T1 construct: the text says soluble human CD3ε chain; also called human CD3 epsilon chain
Experiment: SPR (Biacore)

T1 sequence (P07766 23-126 limits assumed): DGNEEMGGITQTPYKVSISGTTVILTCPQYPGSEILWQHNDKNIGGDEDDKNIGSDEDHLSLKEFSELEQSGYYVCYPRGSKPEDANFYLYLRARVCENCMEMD

Kd | Binder
7.94 nM | TR01H012-E22Hh/none-Hi-Kn010G3/L0000-k0 (antibody, human IgG1, kappa, L234A L235A, N297A, single-arm) heavy: QVQLVESGGGLVQPGRSLRLSCAASGFTFSNAWMHWVRQAPGKGLEWVAQIKAKSNNYATYYAESVKGRFTISRADSKNSIYLQMNSLKTEDTAVYYCRYVHYYYSYGVDIWGQGTTVTVSSASTKGPSVFPLAPSSKSTSGGTAALGCLVKDYFPEPVTVSWNSGALTSGVHTFPAVLQSSGLYSLSSVVTVPSSSLGTQTYICNVNHKPSNTKVDKKVEPKSCDKTHTCPPCPAPEAAGGPSVFLFPPKPKDTLMISRTPEVTCVVVDVSHEDPEVKFNWYVDGVEVHNAKTKPREEQYASTYRVVSVLTVLHQDWLNGKEYKCKVSNKALPAPIEKTISKAKGQPREPQVYTLPPSRCELTKNQVSLSCAVKGFYPSDIAVEWESNGQPENNYKTTPPVLDSDGSFFLVSKLTVDKSRWQQGNVFSCSVMHEALHNHYTQKSLSLSPDYKDDDDK EPKSSDKTHTCPPCPAPELLGGPSVFLFPPKPKDTLMISRTPEVTCVVVDVSHEDPEVKFNWYVDGVEVHNAKTKPREEQYNSTYRVVSVLTVLHQDWLNGKEYKCKVSNKALPAPIEKTISKAKGQPREPQVCTLPPSRDELTKNQVSLWCLVKGFYPSDIAVEWESNGQPENNYKTTPPVLDSDGSFFLYSKLTVDKSRWQQGNVFSCSVMHEALHNRYTQKSLSLSP light: DIVMTQSPLSLPVTPGEPASISCRSSQSLVHSNRNTYLHWYQQKPGQAPRLLIYKVSNRFSGVPDRFSGSGSGTDFTLKISRVEAEDVGVYYCGQGTQVPYTFGQGTKLEIKRTVAAPSVFIFPPSDEQLKSGTASVVCLLNNFYPREAKVQWKVDNALQSGNSQESVTEQDSKDSTYSLSSTLTLSKADYEKHKVYACEVTHQGLSSPVTKSFNRGEC
65.6 nM | TR01H015-E22Hh/none-Hi-Kn010G3/TR01L001-k0 (antibody, human IgG1, kappa, L234A L235A, N297A, single-arm) heavy: QVQLVESGGGLVQPGRSLRLSCAASGFTFSNAWMHWVRQAPGKGLEWVAQIKGKSNNYATYYAESVKGRFTISRADSKNSIYLQMNSLKTEDTAVYYCRYVHYSASYGVDIWGQGTTVTVSSASTKGPSVFPLAPSSKSTSGGTAALGCLVKDYFPEPVTVSWNSGALTSGVHTFPAVLQSSGLYSLSSVVTVPSSSLGTQTYICNVNHKPSNTKVDKKVEPKSCDKTHTCPPCPAPEAAGGPSVFLFPPKPKDTLMISRTPEVTCVVVDVSHEDPEVKFNWYVDGVEVHNAKTKPREEQYASTYRVVSVLTVLHQDWLNGKEYKCKVSNKALPAPIEKTISKAKGQPREPQVYTLPPSRCELTKNQVSLSCAVKGFYPSDIAVEWESNGQPENNYKTTPPVLDSDGSFFLVSKLTVDKSRWQQGNVFSCSVMHEALHNHYTQKSLSLSPDYKDDDDK EPKSSDKTHTCPPCPAPELLGGPSVFLFPPKPKDTLMISRTPEVTCVVVDVSHEDPEVKFNWYVDGVEVHNAKTKPREEQYNSTYRVVSVLTVLHQDWLNGKEYKCKVSNKALPAPIEKTISKAKGQPREPQVCTLPPSRDELTKNQVSLWCLVKGFYPSDIAVEWESNGQPENNYKTTPPVLDSDGSFFLYSKLTVDKSRWQQGNVFSCSVMHEALHNRYTQKSLSLSP light: DIVMTQSPLSLPVTPGEPASISCQASESLVHSNRNTYLHWYQQKPGQAPRLLIYKVSNRFSGVPDRFSGSGSGTDFTLKISRVEAEDVGVYYCGQGTQVPYTFGQGTKLEIKRTVAAPSVFIFPPSDEQLKSGTASVVCLLNNFYPREAKVQWKVDNALQSGNSQESVTEQDSKDSTYSLSSTLTLSKADYEKHKVYACEVTHQGLSSPVTKSFNRGEC
38.7 nM | TR01H014-E22Hh/none-Hi-Kn010G3/L0000-k0 (antibody, human IgG1, kappa, L234A L235A, N297A, single-arm) heavy: QVQLVESGGGLVQPGRSLRLSCAASGFTFSNAWMHWVRQAPGKGLEWVAQIKGKSNNYATYYAPSVKGRFTISRADSKNSIYLQMNSLKTEDTAVYYCRYVHYGAYYGVDIWGQGTTVTVSSASTKGPSVFPLAPSSKSTSGGTAALGCLVKDYFPEPVTVSWNSGALTSGVHTFPAVLQSSGLYSLSSVVTVPSSSLGTQTYICNVNHKPSNTKVDKKVEPKSCDKTHTCPPCPAPEAAGGPSVFLFPPKPKDTLMISRTPEVTCVVVDVSHEDPEVKFNWYVDGVEVHNAKTKPREEQYASTYRVVSVLTVLHQDWLNGKEYKCKVSNKALPAPIEKTISKAKGQPREPQVYTLPPSRCELTKNQVSLSCAVKGFYPSDIAVEWESNGQPENNYKTTPPVLDSDGSFFLVSKLTVDKSRWQQGNVFSCSVMHEALHNHYTQKSLSLSPDYKDDDDK EPKSSDKTHTCPPCPAPELLGGPSVFLFPPKPKDTLMISRTPEVTCVVVDVSHEDPEVKFNWYVDGVEVHNAKTKPREEQYNSTYRVVSVLTVLHQDWLNGKEYKCKVSNKALPAPIEKTISKAKGQPREPQVCTLPPSRDELTKNQVSLWCLVKGFYPSDIAVEWESNGQPENNYKTTPPVLDSDGSFFLYSKLTVDKSRWQQGNVFSCSVMHEALHNRYTQKSLSLSP light: DIVMTQSPLSLPVTPGEPASISCRSSQSLVHSNRNTYLHWYQQKPGQAPRLLIYKVSNRFSGVPDRFSGSGSGTDFTLKISRVEAEDVGVYYCGQGTQVPYTFGQGTKLEIKRTVAAPSVFIFPPSDEQLKSGTASVVCLLNNFYPREAKVQWKVDNALQSGNSQESVTEQDSKDSTYSLSSTLTLSKADYEKHKVYACEVTHQGLSSPVTKSFNRGEC
61.3 nM | TR01H015-E22Hh/none-Hi-Kn010G3/L0000-k0 (antibody, human IgG1, kappa, L234A L235A, N297A, single-arm) heavy: QVQLVESGGGLVQPGRSLRLSCAASGFTFSNAWMHWVRQAPGKGLEWVAQIKGKSNNYATYYAESVKGRFTISRADSKNSIYLQMNSLKTEDTAVYYCRYVHYSASYGVDIWGQGTTVTVSSASTKGPSVFPLAPSSKSTSGGTAALGCLVKDYFPEPVTVSWNSGALTSGVHTFPAVLQSSGLYSLSSVVTVPSSSLGTQTYICNVNHKPSNTKVDKKVEPKSCDKTHTCPPCPAPEAAGGPSVFLFPPKPKDTLMISRTPEVTCVVVDVSHEDPEVKFNWYVDGVEVHNAKTKPREEQYASTYRVVSVLTVLHQDWLNGKEYKCKVSNKALPAPIEKTISKAKGQPREPQVYTLPPSRCELTKNQVSLSCAVKGFYPSDIAVEWESNGQPENNYKTTPPVLDSDGSFFLVSKLTVDKSRWQQGNVFSCSVMHEALHNHYTQKSLSLSPDYKDDDDK EPKSSDKTHTCPPCPAPELLGGPSVFLFPPKPKDTLMISRTPEVTCVVVDVSHEDPEVKFNWYVDGVEVHNAKTKPREEQYNSTYRVVSVLTVLHQDWLNGKEYKCKVSNKALPAPIEKTISKAKGQPREPQVCTLPPSRDELTKNQVSLWCLVKGFYPSDIAVEWESNGQPENNYKTTPPVLDSDGSFFLYSKLTVDKSRWQQGNVFSCSVMHEALHNRYTQKSLSLSP light: DIVMTQSPLSLPVTPGEPASISCRSSQSLVHSNRNTYLHWYQQKPGQAPRLLIYKVSNRFSGVPDRFSGSGSGTDFTLKISRVEAEDVGVYYCGQGTQVPYTFGQGTKLEIKRTVAAPSVFIFPPSDEQLKSGTASVVCLLNNFYPREAKVQWKVDNALQSGNSQESVTEQDSKDSTYSLSSTLTLSKADYEKHKVYACEVTHQGLSSPVTKSFNRGEC
63.4 nM | TR01H015-E22Hh/none-Hi-Kn010G3/TR01L003-k0 (antibody, human IgG1, kappa, L234A L235A, N297A, single-arm) heavy: QVQLVESGGGLVQPGRSLRLSCAASGFTFSNAWMHWVRQAPGKGLEWVAQIKGKSNNYATYYAESVKGRFTISRADSKNSIYLQMNSLKTEDTAVYYCRYVHYSASYGVDIWGQGTTVTVSSASTKGPSVFPLAPSSKSTSGGTAALGCLVKDYFPEPVTVSWNSGALTSGVHTFPAVLQSSGLYSLSSVVTVPSSSLGTQTYICNVNHKPSNTKVDKKVEPKSCDKTHTCPPCPAPEAAGGPSVFLFPPKPKDTLMISRTPEVTCVVVDVSHEDPEVKFNWYVDGVEVHNAKTKPREEQYASTYRVVSVLTVLHQDWLNGKEYKCKVSNKALPAPIEKTISKAKGQPREPQVYTLPPSRCELTKNQVSLSCAVKGFYPSDIAVEWESNGQPENNYKTTPPVLDSDGSFFLVSKLTVDKSRWQQGNVFSCSVMHEALHNHYTQKSLSLSPDYKDDDDK EPKSSDKTHTCPPCPAPELLGGPSVFLFPPKPKDTLMISRTPEVTCVVVDVSHEDPEVKFNWYVDGVEVHNAKTKPREEQYNSTYRVVSVLTVLHQDWLNGKEYKCKVSNKALPAPIEKTISKAKGQPREPQVCTLPPSRDELTKNQVSLWCLVKGFYPSDIAVEWESNGQPENNYKTTPPVLDSDGSFFLYSKLTVDKSRWQQGNVFSCSVMHEALHNRYTQKSLSLSP light: DIVMTQSPLSLPVTPGEPASISCRSSQSLVHSNRNTYLHWYQQKPGQAPRLLIYKVSNRFSGVPDRFSGSGSGTDFTLKISRVEAEDVGVYYCGQGTQVPYTFGQGTKVEIERTVAAPSVFIFPPSDEQLKSGTASVVCLLNNFYPREAKVQWKVDNALQSGNSQESVTEQDSKDSTYSLSSTLTLSKADYEKHKVYACEVTHQGLSSPVTKSFNRGEC
49.4 nM | TR01H013-E22Hh/none-Hi-Kn010G3/L0000-k0 (antibody, human IgG1, kappa, L234A L235A, N297A, single-arm) heavy: QVQLVESGGGLVQPGRSLRLSCAASGFTFSNAWMHWVRQAPGKGLEWVAQIKGKSQNYATYYAESVKGRFTISRADSKNSIYLQMNSLKTEDTAVYYCRYVHYGAYYGVDIWGQGTTVTVSSASTKGPSVFPLAPSSKSTSGGTAALGCLVKDYFPEPVTVSWNSGALTSGVHTFPAVLQSSGLYSLSSVVTVPSSSLGTQTYICNVNHKPSNTKVDKKVEPKSCDKTHTCPPCPAPEAAGGPSVFLFPPKPKDTLMISRTPEVTCVVVDVSHEDPEVKFNWYVDGVEVHNAKTKPREEQYASTYRVVSVLTVLHQDWLNGKEYKCKVSNKALPAPIEKTISKAKGQPREPQVYTLPPSRCELTKNQVSLSCAVKGFYPSDIAVEWESNGQPENNYKTTPPVLDSDGSFFLVSKLTVDKSRWQQGNVFSCSVMHEALHNHYTQKSLSLSPDYKDDDDK EPKSSDKTHTCPPCPAPELLGGPSVFLFPPKPKDTLMISRTPEVTCVVVDVSHEDPEVKFNWYVDGVEVHNAKTKPREEQYNSTYRVVSVLTVLHQDWLNGKEYKCKVSNKALPAPIEKTISKAKGQPREPQVCTLPPSRDELTKNQVSLWCLVKGFYPSDIAVEWESNGQPENNYKTTPPVLDSDGSFFLYSKLTVDKSRWQQGNVFSCSVMHEALHNRYTQKSLSLSP light: DIVMTQSPLSLPVTPGEPASISCRSSQSLVHSNRNTYLHWYQQKPGQAPRLLIYKVSNRFSGVPDRFSGSGSGTDFTLKISRVEAEDVGVYYCGQGTQVPYTFGQGTKLEIKRTVAAPSVFIFPPSDEQLKSGTASVVCLLNNFYPREAKVQWKVDNALQSGNSQESVTEQDSKDSTYSLSSTLTLSKADYEKHKVYACEVTHQGLSSPVTKSFNRGEC

From patent publication US20210388110A1 (published 2021)
